± gives the uncertainty stated by the source.
B1: Zinc finger MYM-type protein 6, residues 427 to 504; numbered along this chain, O95789 (parent)
chain: KLKCQHCNHLFATKPELLFYKGKMFLFCGKNCSDEYKKKNKVVAMCDYCKLQKIIKETVRFSGVDKPFCSEVCKFLSA

Variants of: B1
Assay: abundance fitness (aPCA) (normalised: wild type 0, dead -1); higher = more abundant; growth selection in yeast, the domain comes from the species named
Settings: Homo sapiens

Row | Variant | abundance fitness
1 | KLKCQHCNHLFATKPELLFYKGKMFLFCGKNCSDEYKKKNKVVAMPDYCKLQKIIKETVRFSGVDKPFCSEVCKFLSA [C46P] | -0.248 ± 0.2
2 | KLKCQHCNHLFATKPELLFYKGKMFLFCGKNCSDEYKKKNKVVAMMDYCKLQKIIKETVRFSGVDKPFCSEVCKFLSA [C46M] | -0.159 ± 0.12
3 | KLKCQHCNHLFATKPELLFYKGKMFLFCGKNCSDEYKKKNKVVAMVDYCKLQKIIKETVRFSGVDKPFCSEVCKFLSA [C46V] | -0.308 ± 0.11
4 | KLKCQHCNHLFATKPELLFYKGKMFLFCGKNCSDEYKKKNKVVAMEDYCKLQKIIKETVRFSGVDKPFCSEVCKFLSA [C46E] | -0.674 ± 0.13
5 | KLKCQHCNHLFATKPELLFYKGKMFLFCGKNCSDEYKKKNKVVAMKDYCKLQKIIKETVRFSGVDKPFCSEVCKFLSA [C46K] | 0.241 ± 0.13
6 | KLKCQHCNHLFATKPELLFYKGKMFLFCGKNCSDEYKKKNKVVAMIDYCKLQKIIKETVRFSGVDKPFCSEVCKFLSA [C46I] | 0.329 ± 0.44
7 | KLKCQHCNHLFATKPELLFYKGKMFLFCGKNCSDEYKKKNKVVAMDDYCKLQKIIKETVRFSGVDKPFCSEVCKFLSA [C46D] | -0.531 ± 0.15
8 | KLKCQHCNHLFATKPELLFYKGKMFLFCGKNCSDEYKKKNKVVAMRDYCKLQKIIKETVRFSGVDKPFCSEVCKFLSA [C46R] | -0.331 ± 0.099
9 | KLKCQHCNHLFATKPELLFYKGKMFLFCGKNCSDEYKKKNKVVAMWDYCKLQKIIKETVRFSGVDKPFCSEVCKFLSA [C46W] | 0.056 ± 0.11
10 | KLKCQHCNHLFATKPELLFYKGKMFLFCGKNCSDEYKKKNKVVAMSDYCKLQKIIKETVRFSGVDKPFCSEVCKFLSA [C46S] | -0.703 ± 0.17
11 | KLKCQHCNHLFATKPELLFYKGKMFLFCGKNCSDEYKKKNKVVAMTDYCKLQKIIKETVRFSGVDKPFCSEVCKFLSA [C46T] | -0.311 ± 0.18
12 | KLKCQHCNHLFATKPELLFYKGKMFLFCGKNCSDEYKKKNKVVAMGDYCKLQKIIKETVRFSGVDKPFCSEVCKFLSA [C46G] | -0.629 ± 0.094
13 | KLKCQHCNHLFATKPELLFYKGKMFLFCGKNCSDEYKKKNKVVAMADYCKLQKIIKETVRFSGVDKPFCSEVCKFLSA [C46A] | -0.479 ± 0.12
14 | KLKCQHCNHLFATKPELLFYKGKMFLFCGKNCSDEYKKKNKVVAMCDYCCLQKIIKETVRFSGVDKPFCSEVCKFLSA [K50C] | -0.805 ± 0.19
15 | KLKCQHCNHLFATKPELLFYKGKMFLFCGKNCSDEYKKKNKVVAMCDYCDLQKIIKETVRFSGVDKPFCSEVCKFLSA [K50D] | -0.767 ± 0.37
16 | KLKCQHCNHLFATKPELLFYKGKMFLFCGKNCSDEYKKKNKVVAMCDYCALQKIIKETVRFSGVDKPFCSEVCKFLSA [K50A] | -0.786 ± 0.16
17 | KLKCQHCNHLFATKPELLFYKGKMFLFCGKNCSDEYKKKNKVVAMCDYCHLQKIIKETVRFSGVDKPFCSEVCKFLSA [K50H] | -0.427 ± 0.43
18 | KLKCQHCNHLFATKPELLFYKGKMFLFCGKNCSDEYKKKNKVVAMCDYCLLQKIIKETVRFSGVDKPFCSEVCKFLSA [K50L] | -0.722 ± 0.19

Row | Variant | abundance fitness
19 | KLKCQHCNHLFATKPELLFYKGKMFLFCGKNCSDEYKKKNKVVAMCDYCGLQKIIKETVRFSGVDKPFCSEVCKFLSA [K50G] | -0.228 ± 0.076
20 | KLKCQHCNHLFATKPELLFYKGKMFLFCGKNCSDEYKKKNKVVAMCDYCMLQKIIKETVRFSGVDKPFCSEVCKFLSA [K50M] | -0.685 ± 0.27
21 | KLKCQHCNHLFATKPELLFYKGKMFLFCGKNCSDEYKKKNKVVAMCDYCELQKIIKETVRFSGVDKPFCSEVCKFLSA [K50E] | -0.363 ± 0.14
22 | KLKCQHCNHLFATKPELLFYKGKMFLFCGKNCSDEYKKKNKVVAMCDTCKLQKIIKETVRFSGVDKPFCSEVCKFLSA [Y48T] | -0.014 ± 0.34
23 | KLKCQHCNHLFATKPELLFYKGKMFLFCGKNCSDEYKKKNKVVAMCDKCKLQKIIKETVRFSGVDKPFCSEVCKFLSA [Y48K] | -0.496 ± 0.22
24 | KLKCQHCNHLFATKPELLFYKGKMFLFCGKNCSDEYKKKNKVVAMCDPCKLQKIIKETVRFSGVDKPFCSEVCKFLSA [Y48P] | -0.801 ± 0.23
25 | KLKCQHCNHLFATKPELLFYKGKMFLFCGKNCSDEYKKKNKVVAMCDCCKLQKIIKETVRFSGVDKPFCSEVCKFLSA [Y48C] | 0.426 ± 0.21
26 | KLKCQHCNHLFATKPELLFYKGKMFLFCGKNCSDEYKKKNKVVAMCDMCKLQKIIKETVRFSGVDKPFCSEVCKFLSA [Y48M] | -0.65 ± 0.17
27 | KLKCQHCNHLFATKPELLFYKGKMFLFCGKNCSDEYKKKNKVVAMCDVCKLQKIIKETVRFSGVDKPFCSEVCKFLSA [Y48V] | -0.677 ± 0.12
28 | KLKCQHCNHLFATKPELLFYKGKMFLFCGKNCSDEYKKKNKVVAMCDLCKLQKIIKETVRFSGVDKPFCSEVCKFLSA [Y48L] | -0.496 ± 0.11
29 | KLKCQHCNHLFATKPELLFYKGKMFLFCGKNCSDEYKKKNKVVAMCDWCKLQKIIKETVRFSGVDKPFCSEVCKFLSA [Y48W] | -0.276 ± 0.11
30 | KLKCQHCNHLFATKPELLFYKGKMFLFCGKNCSDEYKKKNKVVAMCDRCKLQKIIKETVRFSGVDKPFCSEVCKFLSA [Y48R] | -0.043 ± 0.076
31 | KLKCQHCNHLFATKPELLFYKGKMFLFCGKNCSDEYKKKNKVVAMCDACKLQKIIKETVRFSGVDKPFCSEVCKFLSA [Y48A] | -0.557 ± 0.11
32 | KLKCQHCNHLFATKPELLFYKGKMFLFCGKNCSDEYKKKNKVVAMCDNCKLQKIIKETVRFSGVDKPFCSEVCKFLSA [Y48N] | -0.184 ± 0.21
33 | KLKCQHCNHLFATKPELLFYKGKMFLFCGKNCSDEYKKKNKVVAMCDGCKLQKIIKETVRFSGVDKPFCSEVCKFLSA [Y48G] | -0.174 ± 0.077
34 | KLKCQHCNHLFATKPELLFYKGKMFLFCGKNCSDEYKKKNKVVAMCDSCKLQKIIKETVRFSGVDKPFCSEVCKFLSA [Y48S] | -0.52 ± 0.13
35 | KLKCQHCNHLFATKPELLFYKGKMFLFCGKNCSDEYKKKNKVVAMCDHCKLQKIIKETVRFSGVDKPFCSEVCKFLSA [Y48H] | 0.537 ± 0.18

Source: the Human Domainome abundance scans (Beltran et al. 2025)
